Source: article PMC10778272 (2023)

Columns and labels:
[1] = target: T1, GST-Synm-CT (fusion protein of the carboxy-terminus of synemin, amino acids 1464-1565, with GST) (Homo sapiens (Human), UniProt O15061); assay: Western blot overlay
T1 chain: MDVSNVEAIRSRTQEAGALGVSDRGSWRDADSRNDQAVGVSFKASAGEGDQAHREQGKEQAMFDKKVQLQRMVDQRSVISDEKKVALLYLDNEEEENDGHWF

[2] = target: T2, GST-Synm-CTΔ (carboxy-terminally truncated synemin, amino acids 1464-1533, fused to GST) (Homo sapiens (Human), UniProt O15061); assay: Western blot overlay
T2 chain: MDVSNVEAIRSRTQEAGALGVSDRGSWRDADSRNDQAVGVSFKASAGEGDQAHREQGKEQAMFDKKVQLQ

B1: T7-tagged PDZ domain of SYNPO2 (protein)
chain: MGTGDFICISMTGGAPWGFRLQGGKEQKQPLQVAKIRNQSKASGSGLCEGDEVVSINGNPCADLTYPEVIKLMESITDSLQMLIKRPSSGISEALISENENKNLEHLTHGGYVESTTLQIRPATKTQCTEFFLAPVKTEVPLAENQRSGPDCAGSLKEETGPSYQRAPQMPDSQRGRVAE
binding result [1]: binds | binding result [2]: no binding
